# Data from patent US11099176B2 (Duke University, priority 2015, dated 2021).
# Columns and labels:
# [1] = Thermal stability by SYPRO Orange thermal melt in a Roche LightCycler; format: physicochemical; settings: for Thermostability apoTm: ligand-free protein, SYPRO Orange, Roche LightCycler
# Protocol: The lactate-binding properties of these proteins were determined experimentally (Table 3). These experiments comprise four successive steps: • 1. Synthetic gene construction. The amino acid sequence of the homology leads are back translated into DNA sequences. […] The predicted gene sequences are assembled de novo from synthetic oligonucleotides. • 2. Heterologous protein expression of the homologues in E. coli.
# [2] = Lactate-mediated fluorescence emission response of fluorescent conjugates (cysteine and fluorophore scan); format: biochemical; set-up: key to Response Acrylodan Shape / Response Badan Shape / Response Badan Intensity: m, monochromatic; d, dichromatic (i.e. spectral shape changes); 0, no change
# Text: Semi-synthetic FRSs can be engineered by site-specifically attaching thiol-reactive, environmentally sensitive fluorophores that respond to ligand-mediated conformational changes. Identification of FRS candidates that can be used for sensing applications comprises three steps: • 1. Cysteine scan. Mutant lactate-binding proteins containing single cysteines are constructed for site-specific attachment of thiol-reactive fluorophores. […] Candidate positions fall into three classes: endosteric, replacing a residue that contacts the ligand directly; peristeric, located at the rim of the binding site; allosteric (Marvin et al., 1997, Proc Natl Acad Sci USA, 94, 4366-71; Marvin, 1998, J Am Chem Soc, 120, 7-11), located outside the binding site at sites that undergo local structural changes in concert with the hinge-bending motion. • 2. Fluorophore screening. Thiol-reactive, environmentally sensitive fluorophores are attached to each cysteine mutant prepared in step 1. • 3. Evaluation of the lactate-mediated change of all the fluorescent conjugates prepared in step 2. Responses to ligand binding in which there is both a change in fluorescence emission intensity and spectral shape are essential for chemometric applications, because such changes enable ratiometric measurements. Changes in spectral shape typically are accompanied by a shift in the wavelength of the emission intensity maxima. Three classes of fluorescent responses are possible: • i. No response. • ii. Monochromatic response (emission intensity increases or decreases without a change in spectral shape) • iii. […] Hypsochromatic: emission intensity shifts to shorter wavelengths upon binding ligand (“blue shift”). • ii. Bathochromatic: emission intensity shifts to longer wavelengths upon binding ligand (“red shift”). • 4.
# We constructed seventeen single cysteine mutants in msLacBP6, exploring one endosteric, fourteen peristeric, and two allosteric positions. Two dominant electronic transitions give rise to fluorescence emission in these fluorophores with maxima in the blue (<500 nm) and green (>500 nm) regions, respectively.
# [3] = Acrylodan conjugate of msLacBP6 cysteine mutant, response to lactate
# [4] = Badan conjugate of msLacBP6 cysteine mutant, response to lactate
Molecule,Thermostability apoTm [1] [°C],other results
"msLacBP6: lactate-binding protein from Marinobacter sp. (SEQ ID NO: 6, 20, 120) (protein) MTDITCKIETKGSARRRGFLKTLAVSAAISATLLASSVQAATTWKIQSVWDAGTVGYDLFKEWCDGMEEKTGGELKFTCFPAKAVAADNNGLFDAVRNGVLQGMNPFTLYWSGKIPASVFLSSYPAGPDQPHQWDTMFYSLGMLEKTREIYKKFGLFYVGPIQHDANIIHSKQPINSLDDLKGLKMRLPGGMVAEVFAKFGVAAVSLPGSDIFPALEKGTIDAADYVGPAVNWELGFSQVTKYILMGPPGIMSVYQPVDLMDLTVNLRAWNALDPKLQQIVEDEVRIYSQKHYLAIQKRNIEAMKKFEAAGTTVTRLSQEDLQEFRRAAIPIWYSWANKDEDAREIFDMQLEYMMNDTVGYITEDDIKGMN",70,mid-point denaturation temperature [1]: 70 °C
"Y187C (conjugate, conjugated fluorophore; msLacBP6 (with signal peptide replaced with M)) MATTWKIQSVWDAGTVGYDLFKEWCDGMEEKTGGELKFTCFPAKAVAADNNGLFDAVRNGVLQGMNPFTLYWSGKIPASVFLSSYPAGPDQPHQWDTMFYSLGMLEKTREIYKKFGLFYVGPIQHDANIIHSKQPINSLDDLKGLKMRLPGGMVAEVFAKFGVAAVSLPGSDIFPALEKGTIDAADCVGPAVNWELGFSQVTKYILMGPPGIMSVYQPVDLMDLTVNLRAWNALDPKLQQIVEDEVRIYSQKHYLAIQKRNIEAMKKFEAAGTTVTRLSQEDLQEFRRAAIPIWYSWANKDEDAREIFDMQLEYMMNDTVGYITEDDIKGMN",–,"Response Acrylodan Intensity [2, 3]: +; Response Acrylodan Shape [2, 3]: d^f; Response Badan Intensity [2, 4]: 0; Response Badan Shape [2, 4]: d^f"
"pgLacBP10: protein from Polymorphum gilvum (SEQ ID NO: 10, 24, 124) (protein) MTEISRRGLLAGSVFGGVALAAPTVARAQEAVEWRMQALWDAGTTPFEFEKKFVERVGELTEGRFKITLYSAGQIVPANQAFDAVRSGAFEMMKTFDGYEAGKIPAFAFTSTIPFGFPQSDQYEAWFYELGGLDLAREAYAKGGLFYIAPTVYGEEPMHSTVKIESIADMAGKKGRFVGLASAVMADLGVAVSPLATAEVYTALEKGLIDFADRGDLTANYEAGLGEVAKFIILPGVHQPTTATSYVANQAAYQKLPDGFKAALAVAAREISGSLRQHILVQDMEVLTKYKDQGVEVVRLDAADIAAARAKAVESWEKATKGDELATRVLKGQVDFMTSLGLL",49,–
"rsLacBP12: protein from Rhodobacter sphaeroides (SEQ ID NO: 12, 26, 126) (protein, Rhodobacter sphaeroides) MTAFEKKAAYSRRSFLRTGALAGGAAAGSVLAAPAVLAQAPLVMKMQTSWPASDIWMDFAREYVTRVEEMSGGRIKVDLLPAGAVVGAFQVMDAVHDGVIDASHSVSAYWYGKSKAASFFGTGPVFGGSATTMLGWFYQGGGQDLYRELTQDILGMNIVGFYGFPMPAQPFGWFKTEVNGVADIQGFKYRTVGLAADLLQAMGMSVAQLPGGEIVPAMERGVIDAFEFNNPSSDMRFGAQDVAKNYYLSSYHQASESFEYTFNRDFYEDLDPDLQAILKYAVEAASTSNTALALRQYSADLATLAAENGVAVHRTPKDILSGQLEAWDKLIVDLEADEFFKKVLDSQRAWVEQVSYYELMNAADLGLAYEHHFPGKLKL",48,–
"fsLacBP13: protein from Flexistipes sinusarabici (SEQ ID NO: 13, 27, 127) (protein, listed as Flexistipes sinusarabici) MGMMKKLLYSLLIILLVASAGFTAEKKIRWKLAMTWGPTLHPLSDTAEHMAEIVKELSDGNFVINIDASNVHKAPFGIFDMVKLGQYEMGHTASYYYKGKNIAFLPLTTMPFGMTAPEQYAWFYYGGGLELMQEAYTKHGMLAFPGGNTGNQMGGWFTKEINSLDDLKGLKMRIPGFAGQIMSKLGVTVTNIPPGELYTALERGTVDAVEWTGPGMDINMGFHKIAKYYYTGWHEPGSEVEFLINEKEYNKLPEKYKKILKIAMKTAAYDMYIQSYEMNAEAWQQMKEKYPDIKVKVFPEEVLKEMKTAYDNLVASYEKESPMFKKIMESKRAYLDKVRDWTHISDYLYLKSTSESNLN",46,–
"adLacBP9: protein from Anaeromyxobacter dehalogenans (SEQ ID NO: 9, 23, 123) (protein) MKKTTSRSQPDTAPKASRRSFLKKAALGAAGVAAGAAAPTIHVAQAPITLRFQSTWPQKDIFHEFALDYAKKVNEMSGGRLKIEVLAAGSVVKAFDLLDAVSKGTLDGGHGVVAYWYGKNTALALWGSGPAFGMDPNMVLAWHHYGGGRQLLEEIYRSLNLDVVSLMYGPMPTQPLGWFKQKPIAKPDDMKGLKFRTVGLSIDIFNGLGAAVNALPGAEIVPAMDRGLLDAAEFNNASSDRVLGFPDVSKICMLQSFHQCSEQFEILFNGKRFQALPADLKSIISIAAQAASADMSWKAIDRYSSDYFEMRDKQGVKFYSTRPEILKRQLEIWDQVMEKRAAENPTFKKVLESQRRFAQRAARWQNDTNVDFKMAYNHFFGGKKKAT",48,–
"tsLacBP7: lactate-binding protein from Thermus sp. (SEQ ID NO: 7, 21, 121) (protein, tsLacBP7 (with signal peptide replaced with M)) MQAPRFRWRIQSAWDAGTVGYTLFQRFAERVKELTDGQIEIQTFPAGAVVGTFDMFDAVKTGVLDGMHPFTLYWAGRMPVTAFLSSYPLGLDRPDQWETWYYALGGLDLARRAFEEQGLFYVGPVQHDYNLIHSKKPIKSFEDFKGVKLRVPGGMIADVFSAAGAATVLLPGGEVYPALERGVIDAADFVGPAVNYNLGFHQVTKYIIMGPPETPAIHQPVDLADITLNLSRWRAVPKNLQERFEAAVHEWSWIHYAGIQKANLETWPKYKAAGVQIIRLTTVDVRKFRRVAIPIWFKWAKQDKYAREAFASQLEYMKALGYVTDADVRGLSL",>100,fluorescence response to lactate ([2]; in words): strong dichromatic responses
"psLacBP11: protein from Pseudomonas stuztzeri (SEQ ID NO: 11, 25, 125) (protein) MKRRHLFGAAALLATLALAGCKDEQSQAPNQQAAGEPAKTYHWKMVTAWPKNYPGLGTSAERLAERVNAMSGGRLTIKVYAAGELVPALEVFDAVSRGTAELGHGASYYWKGKVPTAQFFTSVPFGLSTSEMNAWLSKGGGQAFWDEAYAPFGVKPLVIGNTGMQMGGWYNKEINSLTDLKGLKIRMPGLGGEVLSRLGATTVNLPGGEVFTALQTGAIDATDWVSPYNDLAFGLHKAARYYYYPGWQEPQAVLELLINQKAFDSLPADLQAIVTEASLAASRDMHDDYVYNNALALEQLKQQGTELKRFPDEVLAAMREQSDLILGELAAQSELNGRIWASMKAFQAQVEPMHEISEKELYNWR",60,–
"ttLacBP1: lactate-binding protein from Thermus thermophilus, seed sequence (SEQ ID NO: 1, 15, 115) (protein, listed as Thermus thermophilus) MKRVSRRAFLRRLGVGVAATAAFSPLAVAQARRYRWRIQTAWDAGTVGYSLFQKFTERVKELTDGQLEVQPFPAGAVVGTFDMFDAVKTGVLDGMNPFTLYWAGRMPVTAFLSSYALGLDRPDQWETWFYSLGGLDIARRAFAEQGLFYVGPVQHDLNIIHSKKPIRRFEDFKGVKLRVPGGMIAEVFAAAGASTVLLPGGEVYPALERGVIDAADFVGPAVNYNLGFHQVAKYIIMGPPETPAIHQPVDLMDFTINLNRWRSLPKPLQERFIAAVHEYSWIHYAGIQKANLEAWPKYRQAGVEVIRLSNEDVRKFRRLAIPIWFKWAKMDKYSREAFASQLEYMKGIGYVTDEELKGLSL",>100,–
